Measurements published in US20110236325A1, “METHODS TO TREAT OR PREVENT A SKIN CONDITION USING A NELL1 PEPTIDE” (NellOne Therapeutics, Inc., priority 2010, published 2011).

System: EFT-400 tissues
Assay: Gene expression by quantitative PCR custom array in EFT-400 tissues with or without UV irradiation
Conditions: for AVG Ct ACTB (housekeeping gene) / AVG Ct AQP3 / AVG Ct BCL2L1 / AVG Ct COL1A1 / AVG Ct COL4A2 / AVG Ct COL5A1 / AVG Ct COL6A1 / AVG Ct COL6A2 / AVG Ct COL7A1 / AVG Ct COL8A1 / AVG Ct COL11A1 / AVG Ct COL12A1 / AVG Ct COL14A1 / AVG Ct COL15A1 / AVG Ct COL16A1 / AVG Ct DSG1 / AVG Ct ERCC1 / AVG Ct FN1 / AVG Ct GAPDH (housekeeping gene) / AVG Ct GDF15 / AVG Ct GSTM3 / AVG Ct HSPA8 / AVG Ct IL1A / AVG Ct IL1B / AVG Ct IL8 / AVG Ct KAL1 / AVG Ct KRT16 / AVG Ct LAMA1 / AVG Ct LAMA2 / AVG Ct LAMA3 / AVG Ct LAMA5 / AVG Ct LAMB1 / AVG Ct LAMB3 / AVG Ct LAMC1 / AVG Ct MMP1 / AVG Ct MMP2 / AVG Ct MT2A / AVG Ct PCNA / AVG Ct RPL13A (housekeeping gene) / AVG Ct SIRT1 / AVG Ct TGFBI / AVG Ct THBS3 / AVG Ct TNC / AVG Ct VTN: No UV
Procedure: EpiDerm-FT™ (EFT-400) tissues were produced and packaged in the MatTek Corporation GMP tissue culture production laboratories following standard procedures. Packaged tissues were stored at 4° C. overnight and then re-equilibrated in EFT-400-ASY medium overnight prior to the start of experiments. The sample size was n=3 for each treatment group in the gene expression experiments; and n=6 (two independent experiments of n=3) for the sunburned cell counts.
Total RNA was isolated from the EFT-400 tissues (RNAqueous kit, Ambion) (n=3) and utilized for gene expression analysis by quantitative PCR on an SABioscience custom array containing 42 Human Extracellular Matrix (ECM) and Adhesion Molecules RT^2 Profiler™ PCR Array, stress and toxicity genes whose expression, based on MatTek data, are known to be dramatically altered by UV-protective compounds on UV damaged skin. […] Further, there were three internal control spots on the array that corresponded to human genomic DNA contamination (HGDC), positive PCR control (PPC), and reverse transcription control (RTC).

B1: Nell 1: Full-length human recombinant NELL1 protein (isoform 1, SEQ ID NO: 2), expressed in a wheat germ cell-free translation system, obtained from Abnova (protein, listed as Homo sapiens)
chain: MPMDLILVVWFCVCTARTVVGFGMDPDLQMDIVTELDLVNTTLGVAQVSGMHNASKAFLFQDIEREIHAAPHVSEKLIQLFRNKSEFTILATVQQKPSTSGVILSIRELEHSYFELESSGLRDEIRYHYIHNGKPRTEALPYRMADGQWHKVALSVSASHLLLHVDCNRIYERVIDPPDTNLPPGINLWLGQRNQKHGLFKGIIQDGKIIFMPNGYITQCPNLNHTCPTCSDFLSLVQGIMDLQELLAKMTAKLNYAETRLSQLENCHCEKTCQVSGLLYRDQDSWVDGDHCRNCTCKSGAVECRRMSCPPLNCSPDSLPVHIAGQCCKVCRPKCIYGGKVLAEGQRILTKSCRECRGGVLVKITEMCPPLNCSEKDHILPENQCCRVCRGHNFCAEGPKCGENSECKNWNTKATCECKSGYISVQGDSAYCEDIDECAAKMHYCHANTVCVNLPGLYRCDCVPGYIRVDDFSCTEHDECGSGQHNCDENAICTNTVQGHSCTCKPGYVGNGTICRAFCEEGCRYGGTCVAPNKCVCPSGFTGSHCEKDIDECSEGIIECHNHSRCVNLPGWYHCECRSGFHDDGTYSLSGESCIDIDECALRTHTCWNDSACINLAGGFDCLCPSGPSCSGDCPHEGGLKHNGQVWTLKEDRCSVCSCKDGKIFCRRTACDCQNPSADLFCCPECDTRVTSQCLDQNGHKLYRSGDNWTHSCQQCRCLEGEVDCWPLTCPNLSCEYTAILEGECCPRCVSDPCLADNITYDIRKTCLDSYGVSRLSGSVWTMAGSPCTTCKCKNGRVCCSVDFECLQNN
activity in producing the observed effects (sunburned cells, gene expression) (NELL1 protein at 100 ng/ml, genistein at 50 μM): most active in producing the observed effects
AVG Ct ACTB (housekeeping gene) (100 ng/ml Nell 1): 18
AVG Ct AQP3 (100 ng/ml Nell 1): 23.05
AVG Ct BCL2L1 (100 ng/ml Nell 1): 24.03
AVG Ct COL1A1 (100 ng/ml Nell 1): 17.82
AVG Ct COL4A2 (100 ng/ml Nell 1): 22.01
AVG Ct COL5A1 (100 ng/ml Nell 1): 22.36
AVG Ct COL6A1 (100 ng/ml Nell 1): 18.82
AVG Ct COL6A2 (100 ng/ml Nell 1): 19.33
AVG Ct COL7A1 (100 ng/ml Nell 1): 25.75
AVG Ct COL8A1 (100 ng/ml Nell 1): 27.28
AVG Ct COL11A1 (100 ng/ml Nell 1): 26.77
AVG Ct COL12A1 (100 ng/ml Nell 1): 24.14
AVG Ct COL14A1 (100 ng/ml Nell 1): 25.88
AVG Ct COL15A1 (100 ng/ml Nell 1): 24.72
AVG Ct COL16A1 (100 ng/ml Nell 1): 23.78
AVG Ct DSG1 (100 ng/ml Nell 1): 20.11
AVG Ct ERCC1 (100 ng/ml Nell 1): 23.72
AVG Ct FN1 (100 ng/ml Nell 1): 20.04
AVG Ct GAPDH (housekeeping gene) (100 ng/ml Nell 1): 17.83
AVG Ct GDF15 (100 ng/ml Nell 1): 23.37
AVG Ct GSTM3 (100 ng/ml Nell 1): 29.11
AVG Ct HSPA8 (100 ng/ml Nell 1): 19.83
AVG Ct IL1A (100 ng/ml Nell 1): 25.17
AVG Ct IL1B (100 ng/ml Nell 1): 28.25
AVG Ct IL8 (100 ng/ml Nell 1): 20.41
AVG Ct KAL1 (100 ng/ml Nell 1): 31.6
AVG Ct KRT16 (100 ng/ml Nell 1): 16.15
AVG Ct LAMA1 (100 ng/ml Nell 1): 28.71
AVG Ct LAMA2 (100 ng/ml Nell 1): 24.38
AVG Ct LAMA3 (100 ng/ml Nell 1): 23.37
AVG Ct LAMA5 (100 ng/ml Nell 1): 26.73
AVG Ct LAMB1 (100 ng/ml Nell 1): 22.69
AVG Ct LAMB3 (100 ng/ml Nell 1): 24.73
AVG Ct LAMC1 (100 ng/ml Nell 1): 22.76
AVG Ct MMP1 (100 ng/ml Nell 1): 20.04
AVG Ct MMP2 (100 ng/ml Nell 1): 18.98
AVG Ct MT2A (100 ng/ml Nell 1): 18.43
AVG Ct PCNA (100 ng/ml Nell 1): 23.56
AVG Ct RPL13A (housekeeping gene) (100 ng/ml Nell 1): 20.37
AVG Ct SIRT1 (100 ng/ml Nell 1): 25.93
AVG Ct TGFBI (100 ng/ml Nell 1): 21.73
AVG Ct THBS3 (100 ng/ml Nell 1): 28.69
AVG Ct TNC (100 ng/ml Nell 1): 21.22
AVG Ct VTN (100 ng/ml Nell 1): 32.48
AVG Ct ACTB (housekeeping gene) (150 ng/ml Nell 1): 18.54
AVG Ct AQP3 (150 ng/ml Nell 1): 23.74
AVG Ct BCL2L1 (150 ng/ml Nell 1): 24.48
AVG Ct COL1A1 (150 ng/ml Nell 1): 18.8
AVG Ct COL4A2 (150 ng/ml Nell 1): 22.92
AVG Ct COL5A1 (150 ng/ml Nell 1): 23.36
AVG Ct COL6A1 (150 ng/ml Nell 1): 19.6
AVG Ct COL6A2 (150 ng/ml Nell 1): 20.05
AVG Ct COL7A1 (150 ng/ml Nell 1): 26.73
AVG Ct COL8A1 (150 ng/ml Nell 1): 28.22
AVG Ct COL11A1 (150 ng/ml Nell 1): 27.51
AVG Ct COL12A1 (150 ng/ml Nell 1): 25
AVG Ct COL14A1 (150 ng/ml Nell 1): 26.52
AVG Ct COL15A1 (150 ng/ml Nell 1): 25.35
AVG Ct COL16A1 (150 ng/ml Nell 1): 24.55
AVG Ct DSG1 (150 ng/ml Nell 1): 20.36
AVG Ct ERCC1 (150 ng/ml Nell 1): 24.07
AVG Ct FN1 (150 ng/ml Nell 1): 20.71
AVG Ct GAPDH (housekeeping gene) (150 ng/ml Nell 1): 18.02
AVG Ct GDF15 (150 ng/ml Nell 1): 23.97
AVG Ct GSTM3 (150 ng/ml Nell 1): 29.74
AVG Ct HSPA8 (150 ng/ml Nell 1): 20.36
AVG Ct IL1A (150 ng/ml Nell 1): 25.55
AVG Ct IL1B (150 ng/ml Nell 1): 29.2
AVG Ct IL8 (150 ng/ml Nell 1): 21.04
AVG Ct KAL1 (150 ng/ml Nell 1): 33.03
AVG Ct KRT16 (150 ng/ml Nell 1): 16.49
AVG Ct LAMA1 (150 ng/ml Nell 1): 29.76
AVG Ct LAMA2 (150 ng/ml Nell 1): 25.3
AVG Ct LAMA3 (150 ng/ml Nell 1): 24.15
AVG Ct LAMA5 (150 ng/ml Nell 1): 27.41
AVG Ct LAMB1 (150 ng/ml Nell 1): 23.44
AVG Ct LAMB3 (150 ng/ml Nell 1): 25.42
AVG Ct LAMC1 (150 ng/ml Nell 1): 23.62
AVG Ct MMP1 (150 ng/ml Nell 1): 20.75
AVG Ct MMP2 (150 ng/ml Nell 1): 19.62
AVG Ct MT2A (150 ng/ml Nell 1): 18.83
AVG Ct PCNA (150 ng/ml Nell 1): 24.11
AVG Ct RPL13A (housekeeping gene) (150 ng/ml Nell 1): 20.81
AVG Ct SIRT1 (150 ng/ml Nell 1): 26.67
AVG Ct TGFBI (150 ng/ml Nell 1): 22.16
AVG Ct THBS3 (150 ng/ml Nell 1): 29.23
AVG Ct TNC (150 ng/ml Nell 1): 22.04
AVG Ct VTN (150 ng/ml Nell 1): 32.57
expression of IL-1β elevated after UV exposure (UV-irradiated): decrease in the expression
expression of IL-8 elevated after UV exposure (UV-irradiated): decrease in the expression
expression of MMP-1 elevated after UV exposure (UV-irradiated): decrease in the expression
levels of AQP3 RNA after UV exposure (UV-irradiated): increased these levels further
UV-elevated levels of AQP3 (UV-irradiated, 100 ng/ml): further increased the UV-elevated levels of AQP3
UV-induced increase in IL-1β RNA level (UV-irradiated, 100 ng/ml): slightly modulated the increases
UV-induced increase in IL-8 RNA level (UV-irradiated, 100 ng/ml): slightly modulated the increases
UV-induced increase in MMP-1 RNA level (UV-irradiated, 100 ng/ml): slightly modulated the increases
